Experimental data reported in US9187525B2, “Methods of treating ophthalmic diseases using NPR-B agonists” (Shire Orphan Therapies GmbH, dated 2015).
Numbered stars: 1 amine (or outer) side, 2 acyl side, 3 side chain; on linkers, the order of the positions; unused ones are H or OH. Square brackets hold non-standard residues; d marks the D form. Ends that are not written are not given here. * marks the point of attachment. Sni = (S)-nipecotic acid, O=C([C@H]1CCCN([*:1])C1)[*:2]; Eat = 2,3-dihydro-1H-indole-2-carboxylic acid; Oic = O=C(O)[C@@H]1C[C@@H]2CCCC[C@@H]2N1; Hyp = O=C(O)[C@@H]1C[C@@H](O)CN1; Tic = O=C(O)[C@@H]1Cc2ccccc2CN1; NMeL = CN[C@@H](CC(C)C)C(=O)O; AR‑201‑68 = not defined here; AR‑201‑72 = not defined here; AR‑201‑73 = not defined here; Octanoyl = CCCCCCCC(=O)*; Thz = O=C(O)[C@@H]1CSCN1; Aze = O=C(O)[C@@H]1CCN1; Nbt = 4-butyl-thiazole; Sbt = 5-butyl-thiazole

T1: natriuretic peptide receptor-B (human)
T1 chain: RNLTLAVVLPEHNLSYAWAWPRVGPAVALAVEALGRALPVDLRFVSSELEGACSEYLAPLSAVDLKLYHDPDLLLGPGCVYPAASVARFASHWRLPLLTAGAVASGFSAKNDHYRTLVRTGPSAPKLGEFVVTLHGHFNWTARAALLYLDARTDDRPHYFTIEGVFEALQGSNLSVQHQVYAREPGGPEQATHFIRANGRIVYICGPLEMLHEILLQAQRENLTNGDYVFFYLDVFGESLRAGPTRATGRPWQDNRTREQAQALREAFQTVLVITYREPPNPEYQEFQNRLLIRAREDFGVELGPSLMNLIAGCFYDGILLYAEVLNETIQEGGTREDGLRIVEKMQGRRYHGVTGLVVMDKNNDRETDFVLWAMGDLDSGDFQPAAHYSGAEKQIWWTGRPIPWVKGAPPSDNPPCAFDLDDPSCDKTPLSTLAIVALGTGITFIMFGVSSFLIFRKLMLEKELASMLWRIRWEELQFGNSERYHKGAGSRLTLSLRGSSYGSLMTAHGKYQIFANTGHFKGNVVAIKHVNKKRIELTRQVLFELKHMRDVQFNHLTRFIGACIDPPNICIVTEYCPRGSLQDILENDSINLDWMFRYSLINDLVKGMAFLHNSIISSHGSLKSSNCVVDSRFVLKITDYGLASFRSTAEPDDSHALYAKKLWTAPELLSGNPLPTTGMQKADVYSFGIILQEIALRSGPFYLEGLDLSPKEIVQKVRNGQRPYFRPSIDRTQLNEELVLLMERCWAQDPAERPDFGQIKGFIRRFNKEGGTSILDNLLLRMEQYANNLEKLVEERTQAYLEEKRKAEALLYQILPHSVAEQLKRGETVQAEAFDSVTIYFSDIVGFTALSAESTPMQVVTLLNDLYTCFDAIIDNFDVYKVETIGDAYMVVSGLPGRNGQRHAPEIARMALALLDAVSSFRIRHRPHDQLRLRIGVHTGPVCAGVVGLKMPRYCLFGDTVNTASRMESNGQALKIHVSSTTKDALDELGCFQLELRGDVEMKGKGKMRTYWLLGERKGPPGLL

B1: JAL-1380 (peptide)
peptide: [AR‑201‑68]F[dL]L[Hyp][NMeL]DRI-NH2
modifications: reading uncertain; also: printed as (AR-201-68)-Phe-leu-Leu-Hyp-Nml-Asp-Arg-Ile-NH2
B2: JAL-1381 (peptide)
peptide: [AR‑201‑68]F[dR]L[Hyp][NMeL]DRI-NH2
modifications: reading uncertain; also: printed as (AR-201-68)-Phe-arg-Leu-Hyp-Nml-Asp-Arg-Ile-NH2
B3: JAL-0650 (peptide)
peptide: XXFGLKLDRI
HELM: PEPTIDE1{[CCCCCC(=O)[*:2]].[O=C(Cc1ccc(N[*:1])cc1)[*:2]].F.G.L.K.L.D.R.I.[am]}$$$$V2.0
SMILES: CCCCCC(=O)Nc1ccc(CC(=O)N[C@@H](Cc2ccccc2)C(=O)NCC(=O)N[C@@H](CC(C)C)C(=O)N[C@@H](CCCCN)C(=O)N[C@@H](CC(C)C)C(=O)N[C@@H](CC(=O)O)C(=O)N[C@@H](CCCNC(=N)N)C(=O)N[C@H](C(N)=O)[C@@H](C)CC)cc1
B4: JAL-1378 (peptide)
peptide: [AR‑201‑73]F[dL]L[Hyp][NMeL]DRI-NH2
modifications: reading uncertain; also: printed as (AR-201-73)-Phe-leu-Leu-Hyp-Nml-Asp-Arg-Ile-NH2
B5: JAL-1377 (peptide)
peptide: [AR‑201‑72]F[dR]L[Hyp][NMeL]DRI-NH2
modifications: reading uncertain; also: printed as (AR-201-72)-Phe-arg-Leu-Hyp-Nml-Asp-Arg-Ile-NH2
B6: JAL-1379 (peptide)
peptide: [AR‑201‑73]F[dR]L[Hyp][NMeL]DRI-NH2
modifications: reading uncertain; also: printed as (AR-201-73)-Phe-arg-Leu-Hyp-Nml-Asp-Arg-Ile-NH2
B7: JAL-1376 (peptide)
peptide: [AR‑201‑72]F[dL]L[Hyp][NMeL]DRI-NH2
modifications: reading uncertain; also: printed as (AR-201-72)-Phe-leu-Leu-Hyp-Nml-Asp-Arg-Ile-NH2

Target: T1, natriuretic peptide receptor-B
Experiment: cell-based or functional assay

Row | Binder | EC50 group, cGMP in GTM-3 cells [µM]
1 | B1 | ≤ 1
2 | Octanoyl-[dA]F[dR]L[Hyp][Thz]DRI-NH2 [JAL-1395] | ≤ 15
3 | Sbt-[Sni]F[dL]L[Hyp][NMeL]DRI-NH2 [JAL-1382] | ≤ 1
4 | B2 | ≤ 5
5 | Octanoyl-[dA]F[dR]L[Hyp][Eat]DRI-NH2 [JAL-1394] | ≤ 15
6 | B3 | ≤ 15
7 | Nbt-[Sni]F[dL]L[Hyp][NMeL]DRI-NH2 [JAL-1383] | ≤ 5
8 | B4 | ≤ 5
9 | B5 | ≤ 15
10 | B6 | ≤ 5
11 | Octanoyl-[dA]F[dR]L[Hyp][Aze]DRI-NH2 [JAL-1393] | ≤ 15
12 | B7 | ≤ 15
13 | Octanoyl-[dA]F[dR]L[Hyp]PDRI-NH2 [JAL-1387] | ≤ 15
14 | Octanoyl-[dA]F[dR]L[Hyp][Tic]DRI-NH2 [JAL-1396] | ≤ 5
15 | Octanoyl-[Sni]F[dL]L[Hyp][NMeL]VRI-NH2 [JAL-1398] | ≤ 1
16 | Octanoyl-[dA]F[dL]L[Hyp][Oic]DRI-NH2 [JAL-1386] | ≤ 5
